Data on four molecules can be found in patent publication US11608380B2, “Anti-EGFRvIII antibodies and uses thereof” (REGENERON PHARMACEUTICALS, INC., priority 2014, dated 2023).

In experiment [1] the target is EGFRvIII-mFc. It counts as binding, human. Conditions: 37° C., receptor-capture, EGFRvIII-mFc captured. How it is done: (§1) Measurements were conducted on a T100 BIACORE™ instrument. […] In the receptor-capture format, either EGFRvIII-mFc or EGFR-mFc, was captured on the BIACORE™ chip and the respective antibodies flowed over. Kinetic association (ka) and dissociation (kd) rate constants were determined by processing and fitting the data to a 1:1 binding model using Scrubber 2.0 curve fitting software. Binding dissociation equilibrium constants (KD) and dissociative half-lives (t1/2) were calculated from the kinetic rate constants as: KD (M)=kd/ka; and t1/2 (min)=ln 2/(60*kd).

Another experiment relates to HEK293 cells. In words: FACS cell binding selectivity. The experiment is classed as cell-based. To be noted: 10 μg/ml. How it is done: To determine the specificity of the anti-EGFRvIII mAbs, their binding to HEK293, HEK293 cells expressing EGFRvIII (HEK293/EGFRvIII) and A431 cells, was analyzed by fluorescence activated cell sorting (FACS). HEK293/EGFRvIII cells were prepared by transfecting HEK293 cells with neomycin resistant DNA vectors constitutively expressing full-length hEGFRvIII (SEQ ID NO:147) using LIPOFECTAMINE™ 2000 transfection reagent (INVITROGEN™). At two days post-transfection, cells were placed under G418 selection for approximately two weeks. Populations positively expressing EGFRvIII were isolated via fluorescence activated cell sorting (FACS). The HEK293 cells expressing ˜3×10^6 copies of EGFRvIII per cell were used in the experiment. Briefly, the anti-EGFRvIII antibodies at 10 μg/ml were incubated with cells for 30 minutes at room temperature, washed, incubated with secondary antibody, i.e., phycoerythrin (PE)-labeled goat F(ab′)2 against human IgG (cat #109-116-170, Jackson ImmunoResearch Laboratories), followed by a final wash before FACS analysis. In another set of experiment, anti-EGFRvIII antibodies were directly conjugated via their lysine residues with the fluorescent dye, ALEXA FLUOR® 488 Dye (INVITROGEN™), thereby eliminating the step using the secondary antibody. […] Controls I, II, III, IV and V are described above. MFI: Mean Fluorescence Intensity.

The target in a further experiment is EGFRvIII-mmh (Homo sapiens, UniProt P00533, DELINS30-297G). As to the kind of experiment: SPR (BIACORE) binding kinetics, mAb-capture format. To be noted: 37° C., NB=no binding; for ka: analyte EGFRvIII-mmh (monomeric); for kd: analyte EGFRvIII-mmh. How it is done: as §1
In general terms: SPR reads the build-up and loss of mass on a sensor chip optically.

The test system of experiment [2] is EGFRvIII-mFc. In words: SPR (BIACORE) binding kinetics, mAb-capture format. The arrangement: species or system human. To be noted: 37° C., NB=no binding; for ka: analyte EGFRvIII-mFc (dimeric); for kd: analyte EGFRvIII-mFc.
The target of experiment [3] is T1, EGFR-mFc (Homo sapiens, UniProt P00533). In words: SPR (BIACORE) binding kinetics, receptor-capture format. Conditions: 37° C., EGFR-mFc captured, NB=no binding. How it is done:
as §1

In the next experiment the test system is HEK293/EGFRvIII cells. As to the kind of experiment: Internalization of anti-EGFRvIII mAbs. It counts as cell-based, human. To be noted: 37° C., 1 h. How it is done: Anti-EGFRvIII mAbs (10 ug/ml) were incubated with HEK293/[…] (see Example 7, supra) cells for 2 hours on ice followed by two PBS washes. Cells were then subjected to a 30-min incubation on ice with secondary DYLIGHT™ 488-conjugated anti-human IgG Fab fragments (Jackson ImmunoResearch Laboratories) followed by two additional PBS washes. Antibodies were allowed to internalize for 1 h at 37° C. in internalization buffer (PBS+FBS) or remained at 4° C. Cells were fixed in 4% formaldehyde, and nuclei stained with DRAQ5® DNA dye (Cell Signaling Technology, Inc.). Images were acquired at 40× on the IMAGEXPRESS™ high content system (Molecular Devices) and internalized vesicles were quantitated using Columbus software (Perkin Elmer).

For the next experiment, the target named is N-term biotin J-peptide (Homo sapiens, UniProt P00533, DELINS30-297G). As to the kind of experiment: Antibody specificity by ELISA. Conditions: ELISA binding, avidin pre-coated plates. How it is done:
(§2) To further characterize anti-hEGFRvIII mAbs, their binding specificity was examined by ELISA. […] For the junctional peptides that were linked to biotin either at C-terminal (SEQ ID NO:149) or N-terminal (SEQ ID NO:150) via a linker, plates were pre-coated with avidin. Also, coated was an irrelevant peptide (control peptide) with or without biotin at its N-terminal. Anti-EGFRvIII antibodies as well as an isotype control antibody were added to coated plates and allowed to incubate for 1 hour at 25° C. The plates were then washed and bound anti-EGFRvIII mAbs were detected with anti-human Fc antibodies conjugated with horse-radish peroxidase (HRP). […] Data analysis used a sigmoidal dose-response model within PRISM™ software.

A further experiment has as its target C-term biotin J-peptide (Homo sapiens, UniProt P00533, DELINS30-297G). In words: Antibody specificity by ELISA. Conditions: ELISA binding, avidin pre-coated plates. How it is done:
as §2

Experiment [4] deals with junctional peptide (J-peptide) (Homo sapiens, UniProt P00533, DELINS30-297G). In words: Antibody specificity by ELISA. Conditions: ELISA binding. How it is done:
as §2
(An ELISA detects its analyte on a solid surface through an enzyme-linked reagent.)

Experiment [5] has as its system N-term Biotin control peptide. As to the kind of experiment: Antibody specificity by ELISA. Conditions: ELISA binding, irrelevant peptide with N-terminal biotin. How it is done:
(§3) To further characterize anti-hEGFRvIII mAbs, their binding specificity was examined by ELISA. […] For the junctional peptides that were linked to biotin either at C-terminal (SEQ ID NO:149) or N-terminal (SEQ ID NO:150) via a linker, plates were pre-coated with avidin. Also, coated was an irrelevant peptide (control peptide) with or without biotin at its N-terminal. Anti-EGFRvIII antibodies as well as an isotype control antibody were added to coated plates and allowed to incubate for 1 hour at 25° C. The plates were then washed and bound anti-EGFRvIII mAbs were detected with anti-human Fc antibodies conjugated with horse-radish peroxidase (HRP). Plates were developed with a tetra-methyl-benzidine (TMB) substrate solution to produce a colorimetric reaction and neutralized with sulfuric acid before reading absorbance at 450 nm on a VICTOR™ X5 plate reader. Data analysis used a sigmoidal dose-response model within PRISM™ software. […] NT: Not tested. Controls I-III: As described above.

Another experiment deals with Control peptide. In words: Antibody specificity by ELISA. Conditions: ELISA binding, irrelevant peptide. How it is done: as §3
Experiment [6] deals with T1, EGFR-mFc. In words: SPR (BIACORE) binding kinetics, mAb-capture format. Conditions: 37° C., NB=no binding.
A further experiment concerns the target EGFR-mmh (Homo sapiens, UniProt P00533). As to the kind of experiment: SPR (BIACORE) binding kinetics, mAb-capture format. To be noted: 37° C., NB=no binding.
[7] abbreviates: directly labeled (ALEXA FLUOR 488) antibodies.

By Kd is commonly meant a measure of binding affinity in units of concentration. Read a low Kd as higher affinity. The term EC50 denotes the midpoint of the concentration-response curve. Read a high EC50 as weaker potency.

Read-outs that look alike come from different tables or passages of the source.

Sequence of EGFRvIII-mFc (as listed by the source): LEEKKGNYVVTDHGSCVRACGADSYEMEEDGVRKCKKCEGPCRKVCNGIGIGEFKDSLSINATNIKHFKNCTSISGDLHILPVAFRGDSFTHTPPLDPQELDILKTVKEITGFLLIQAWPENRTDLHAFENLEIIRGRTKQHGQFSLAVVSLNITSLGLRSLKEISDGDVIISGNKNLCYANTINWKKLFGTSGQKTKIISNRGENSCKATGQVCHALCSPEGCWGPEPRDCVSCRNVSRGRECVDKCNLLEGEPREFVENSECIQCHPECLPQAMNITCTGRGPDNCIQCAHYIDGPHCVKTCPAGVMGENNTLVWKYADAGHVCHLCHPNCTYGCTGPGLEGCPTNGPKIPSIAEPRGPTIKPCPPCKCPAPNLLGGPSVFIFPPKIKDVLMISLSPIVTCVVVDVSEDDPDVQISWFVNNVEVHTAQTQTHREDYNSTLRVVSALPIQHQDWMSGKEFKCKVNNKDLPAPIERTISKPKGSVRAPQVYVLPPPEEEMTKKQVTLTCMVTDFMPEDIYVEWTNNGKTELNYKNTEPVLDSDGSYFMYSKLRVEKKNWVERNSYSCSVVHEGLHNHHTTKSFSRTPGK

B1: H1H1913N: human IgG1 Fc anti-EGFRvIII antibody with variable domains 1913; HCVR/LCVR SEQ ID NOs 130/138 (antibody, V domains shown)
VH: QVQLQQWGAGLLKPSETLSLTCAVYGGSFSGDYWSWIRQSPGKGLEWIGEINHSGSTNYNPSLKSRVTISIDTSKNQFSLKLSSVTAADTAVYYCARGGGDYYYGMDVWGLGTTVTVSS
VL: AIQMTQSPSSLSASVGDRVTITCRASQGIGNDLGWYQQKPGKAPNLLIYATSSLQSGVPSRFSGSGSGTDFTLTISSLQPEDFATYYCLQDYNYPWTFGQGTKVEIK
modifications: human IgG1 Fc
B1 yielded a Kd on EGFRvIII-mFc [1] of 0.0158 nM. The ka with EGFRvIII-mFc [1] was determined as 63000 M⁻¹ s⁻¹; with EGFRvIII-mmh it was 163 M⁻¹ s⁻¹; with EGFRvIII-mFc [2], 14000 M⁻¹ s⁻¹; with EGFR-mFc [3] it was 5930 M⁻¹ s⁻¹. Besides, in the experiment with HEK293 cells (setting [7]), the “Parental HEK293 MFI” value was found to be 4801. The results for the kd in the experiment with EGFRvIII-mmh, on EGFRvIII-mFc [2] and with EGFR-mFc [3] were 0.00114 s⁻¹, 0.000316 s⁻¹ and 1e-06 s⁻¹, respectively.

B2: H1H1912N: human IgG1 Fc anti-EGFRvIII antibody with variable domains 1912; HCVR/LCVR SEQ ID NOs 66/74 (antibody, V domains shown)
VH: EVQLVESGGGLVQPGRSLRLSCAASGFTFDDYAMHWVRQVPGKGLEWVSGISWNSGSIGYADSVKGRFTISRDNAKNSLYLQMNSLRAEDTALYYCAKDIHDYGKDYYYYYGMDVWGQGTTVTVSS
VL: EIALTQSPGTLSLSPGERATLSCRASQSVSSTYLAWYQQKPGQAPRLLIYGASSRATGIPDRFSGSGSGTDFTLTISRLEPEDFAVYYCQQYDSSPITFGQGTRLEIK
modifications: human IgG1 Fc
As for B2, in the experiment with HEK293/EGFRvIII cells, the internalization entry is on record as “Internalization was also observed”. Moreover, the EC50 (with N-term biotin J-peptide; with C-term biotin J-peptide; in experiment [4]; in experiment [5]; in the experiment with Control peptide) was greater than 10 nM throughout. The ka was found to be 99000 M⁻¹ s⁻¹ in the experiment on EGFRvIII-mFc [1], 18300 M⁻¹ s⁻¹ in the experiment with EGFRvIII-mmh, 20400 M⁻¹ s⁻¹ in the experiment on EGFRvIII-mFc [2] and 39900 M⁻¹ s⁻¹ in the experiment with EGFR-mFc [3]. In addition, the kd at EGFRvIII-mFc [1] is 0.000537 s⁻¹; in the experiment with EGFRvIII-mmh, 0.0164 s⁻¹; on EGFRvIII-mFc [2], 0.000971 s⁻¹; with EGFR-mFc [3], 0.000914 s⁻¹. For the same molecule, in the experiment with HEK293 cells (setting [7]), the “Parental HEK293 MFI” value stood at 3727.

B3: H1H1911N: human IgG1 Fc anti-EGFRvIII antibody with variable domains 1911; HCVR/LCVR SEQ ID NOs 50/58 (antibody, V domains shown)
VH: QVQLVESGGGVVQPGRSLRLSCAASGFTFSRYGIHWVRQAPGKGLEWVAVIWHDGSNKYYADSVKGRFTISRDNSKNTLYLQMTSLRAEDTAVYYCARDGLEIRDHYYYGMDVWGQGTTVTVSS
VL: DIQMTQSPSTLSASVGDRVTITCRASQSTSSWLAWYQQKPGKAPTLLIYKASSLESGVPSKFSGSGSGTEFTLTISSLQPDDFATYYCQQYNRYSRTFGQGTKVEIK
modifications: human IgG1 Fc
For the molecule B3, the internalization result with HEK293/EGFRvIII cells is listed as “Internalization was also observed”. The half-maximal effective concentration (EC50) (with N-term biotin J-peptide; with C-term biotin J-peptide; in experiment [4]; in experiment [5]; in the experiment with Control peptide) was greater than 10 nM in each case. The ka with EGFRvIII-mFc [1] amounted to 32900 M⁻¹ s⁻¹; in the experiment with EGFR-mFc [3] it was 7770 M⁻¹ s⁻¹. Also, the kd on EGFRvIII-mFc [1] was 0.000643 s⁻¹; with EGFR-mFc [3] it was 0.00174 s⁻¹. Further, the results for the “Parental HEK293 MFI” value with HEK293 cells (setting [7]) and in the experiment on HEK293 cells (secondary PE-labeled anti-Fc) were 3593 and 1812, respectively.

B4: H1H2195P: human IgG1 Fc anti-EGFRvIII antibody; HCVR/LCVR SEQ ID NOs 18/26 (antibody, V domains shown)
VH: QVQLVESGGGVVQPGRSRRLSCVGSGFIFSSYGMHWVRQAPGKGLEWVALIFYDGSNEYYVDSVKGRFTISRDNSKNTLYLQMNSLRAEDTAVYYCAREGYSQRYKYYFGMDVWGQGTTVTVSS
VL: DIQMTQSPSSVSASVGDRVTITCRASQGISSWLAWYQQQPGKAPKLLIYAASSLQSGVPSRFSGSGSGTDFTLTISSLQPEDFATYYCQQTNSFPLTFGGGTKVEIKR
modifications: human IgG1 Fc
As for B4, the EC50 (with N-term biotin J-peptide; with C-term biotin J-peptide; in experiment [4]; in [5]; in the experiment with Control peptide) was greater than 10 nM throughout. Moreover, the ka in the experiment on EGFRvIII-mFc [1] was 237000 M⁻¹ s⁻¹; with EGFRvIII-mmh, 64800 M⁻¹ s⁻¹; in the experiment with EGFRvIII-mFc [2], 102000 M⁻¹ s⁻¹; in the experiment with EGFR-mFc [6] (analyte EGFR-mFc (dimeric)) it was 92000 M⁻¹ s⁻¹; with EGFR-mmh (analyte EGFR-mmh (monomeric)), 56600 M⁻¹ s⁻¹; with EGFR-mFc [3], 225000 M⁻¹ s⁻¹. Moreover, the kd at EGFRvIII-mFc [1] is 2.53e-05 s⁻¹; with EGFRvIII-mmh, 0.000694 s⁻¹; on EGFRvIII-mFc [2] it was 0.000113 s⁻¹; in the experiment with EGFR-mFc [6] (analyte EGFR-mFc) it was 0.000189 s⁻¹; with EGFR-mmh (analyte EGFR-mmh), 0.000523 s⁻¹; in the experiment with EGFR-mFc [3], 5.2e-05 s⁻¹. Besides, the “Parental HEK293 MFI” value in the experiment with HEK293 cells (secondary PE-labeled anti-Fc) was 1176.
